T1: extracellular domain of human CD79b (human, UniProt P40259 29-159)
T1 construct: also called huCD79becd; huCD79b-ecd
T1 sequence: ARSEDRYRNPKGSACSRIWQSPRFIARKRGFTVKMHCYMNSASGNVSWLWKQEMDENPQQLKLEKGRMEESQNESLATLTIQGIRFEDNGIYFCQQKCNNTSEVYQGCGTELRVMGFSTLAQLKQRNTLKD

B1: huMA79b graft variant SEQ ID NO: 17 (Fab, name in Kabat numbering, V domains shown)
VH: EVQLVESGGGLVQPGGSLRLSCAASGYTFSSYWIEWVRQAPGKGLEWVGEILPGGGDTNYNEIFKGRFTISADTSKNTAYLQMNSLRAEDTAVYYCTRRVPVYFDYWGQGTLVTVSS
VL: DIQMTQSPSSLSASVGDRVTITCKASKSVDYDGDSFLNWYQQKPGKAPKLLIYAASNLESGVPSRFSGSGSGTDFTLTISSLQPEDFATYYCQQSNEDPLTFGQGTKVEIKR
notes: Fab on phage; rest as huMA79b graft; also called SPL-2 mutation
B2: huMA79b graft variant SEQ ID NO: 20 (Fab, name in Kabat numbering, V domains shown)
VH: EVQLVESGGGLVQPGGSLRLSCAASGYTFSSYWIEWVRQAPGKGLEWVGEILPGGGDTNYNEIFKGRFTISADTSKNTAYLQMNSLRAEDTAVYYCTRRVPVYFDYWGQGTLVTVSS
VL: DIQMTQSPSSLSASVGDRVTITCKASQSVDYDGDSFLNWYQQKPGKAPKLLIYAASNLESGVPSRFSGSGSGTDFTLTISSLQPEDFATYYCQQSNSDPLTFGQGTKVEIKR
notes: Fab on phage; rest as huMA79b graft; also called SPL-5 mutation
B3: huMA79b graft variant SEQ ID NO: 23 (Fab, name in Kabat numbering, V domains shown)
VH: EVQLVESGGGLVQPGGSLRLSCAASGYTFSSYWIEWVRQAPGKGLEWVGEILPGGGDTNYNEIFKGRFTISADTSKNTAYLQMNSLRAEDTAVYYCTRRVPVYFDYWGQGTLVTVSS
VL: DIQMTQSPSSLSASVGDRVTITCKASQSVDYDGDSFLNWYQQKPGKAPKLLIYAASRLESGVPSRFSGSGSGTDFTLTISSLQPEDFATYYCQQSNEDPLTFGQGTKVEIKR
notes: Fab on phage; rest as huMA79b graft
B4: huMA79b graft variant SEQ ID NO: 32 (Fab, name in Kabat numbering, V domains shown)
VH: EVQLVESGGGLVQPGGSLRLSCAASGYTFSSYWIEWVRQAPGKGLEWVGEILPGGGDTNYNEIFKGRFTISADTSKNTAYLQMNSLRAEDTAVYYCTRRVPVYFDYWGQGTLVTVSS
VL: DIQMTQSPSSLSASVGDRVTITCKASQSVDYDGDSFLNWYQQKPGKAPKLLIYAARHLKRGVPSRFSGSGSGTDFTLTISSLQPEDFATYYCQQSNEDPLTFGQGTKVEIKR
notes: as for B3
B5: huMA79b graft variant SEQ ID NO: 28 (Fab, name in Kabat numbering, V domains shown)
VH: EVQLVESGGGLVQPGGSLRLSCAASGYTFSSYWIEWVRQAPGKGLEWVGEILPGGGDTNYNEIFKGRFTISADTSKNTAYLQMNSLRAEDTAVYYCTRRVPVYFDYWGQGTLVTVSS
VL: DIQMTQSPSSLSASVGDRVTITCKASQSVDYDGDSFLNWYQQKPGKAPKLLIYAARKLASGVPSRFSGSGSGTDFTLTISSLQPEDFATYYCQQSNEDPLTFGQGTKVEIKR
notes: as for B3
B6: huMA79b graft variant SEQ ID NO: 25 (Fab, name in Kabat numbering, V domains shown)
VH: EVQLVESGGGLVQPGGSLRLSCAASGYTFSSYWIEWVRQAPGKGLEWVGEILPGGGDTNYNEIFKGRFTISADTSKNTAYLQMNSLRAEDTAVYYCTRRVPVYFDYWGQGTLVTVSS
VL: DIQMTQSPSSLSASVGDRVTITCKASQSVDYDGDSFLNWYQQKPGKAPKLLIYAARKLKRGVPSRFSGSGSGTDFTLTISSLQPEDFATYYCQQSNEDPLTFGQGTKVEIKR
notes: as for B3
B7: huMA79b graft variant SEQ ID NO: 26 (Fab, name in Kabat numbering, V domains shown)
VH: EVQLVESGGGLVQPGGSLRLSCAASGYTFSSYWIEWVRQAPGKGLEWVGEILPGGGDTNYNEIFKGRFTISADTSKNTAYLQMNSLRAEDTAVYYCTRRVPVYFDYWGQGTLVTVSS
VL: DIQMTQSPSSLSASVGDRVTITCKASQSVDYDGDSFLNWYQQKPGKAPKLLIYAARYLKRGVPSRFSGSGSGTDFTLTISSLQPEDFATYYCQQSNEDPLTFGQGTKVEIKR
notes: Fab on phage; rest as huMA79b graft; also called L2-29 mutation
B8: huMA79b graft variant SEQ ID NO: 31 (Fab, name in Kabat numbering, V domains shown)
VH: EVQLVESGGGLVQPGGSLRLSCAASGYTFSSYWIEWVRQAPGKGLEWVGEILPGGGDTNYNEIFKGRFTISADTSKNTAYLQMNSLRAEDTAVYYCTRRVPVYFDYWGQGTLVTVSS
VL: DIQMTQSPSSLSASVGDRVTITCKASQSVDYDGDSFLNWYQQKPGKAPKLLIYAARKLGSGVPSRFSGSGSGTDFTLTISSLQPEDFATYYCQQSNEDPLTFGQGTKVEIKR
notes: Fab on phage; rest as huMA79b graft; also called L2-38 mutation
B9: huMA79b graft variant SEQ ID NO: 19 (Fab, name in Kabat numbering, V domains shown)
VH: EVQLVESGGGLVQPGGSLRLSCAASGYTFSSYWIEWVRQAPGKGLEWVGEILPGGGDTNYNEIFKGRFTISADTSKNTAYLQMNSLRAEDTAVYYCTRRVPVYFDYWGQGTLVTVSS
VL: DIQMTQSPSSLSASVGDRVTITCKASQSVDYDGDSFLNWYQQKPGKAPKLLIYAASNLKSGVPSRFSGSGSGTDFTLTISSLQPEDFATYYCQQSNEDPLTFGQGTKVEIKR
notes: as for B3
B10: huMA79b graft variant SEQ ID NO: 24 (Fab, name in Kabat numbering, V domains shown)
VH: EVQLVESGGGLVQPGGSLRLSCAASGYTFSSYWIEWVRQAPGKGLEWVGEILPGGGDTNYNEIFKGRFTISADTSKNTAYLQMNSLRAEDTAVYYCTRRVPVYFDYWGQGTLVTVSS
VL: DIQMTQSPSSLSASVGDRVTITCKASQSVDYDGDSFLNWYQQKPGKAPKLLIYAARKLGNGVPSRFSGSGSGTDFTLTISSLQPEDFATYYCQQSNEDPLTFGQGTKVEIKR
notes: as for B3
B11: huMA79b graft variant SEQ ID NO: 29 (Fab, name in Kabat numbering, V domains shown)
VH: EVQLVESGGGLVQPGGSLRLSCAASGYTFSSYWIEWVRQAPGKGLEWVGEILPGGGDTNYNEIFKGRFTISADTSKNTAYLQMNSLRAEDTAVYYCTRRVPVYFDYWGQGTLVTVSS
VL: DIQMTQSPSSLSASVGDRVTITCKASQSVDYDGDSFLNWYQQKPGKAPKLLIYAAGILARGVPSRFSGSGSGTDFTLTISSLQPEDFATYYCQQSNEDPLTFGQGTKVEIKR
notes: as for B3
B12: huMA79b graft variant SEQ ID NO: 30 (Fab, name in Kabat numbering, V domains shown)
VH: EVQLVESGGGLVQPGGSLRLSCAASGYTFSSYWIEWVRQAPGKGLEWVGEILPGGGDTNYNEIFKGRFTISADTSKNTAYLQMNSLRAEDTAVYYCTRRVPVYFDYWGQGTLVTVSS
VL: DIQMTQSPSSLSASVGDRVTITCKASQSVDYDGDSFLNWYQQKPGKAPKLLIYAARKLRSGVPSRFSGSGSGTDFTLTISSLQPEDFATYYCQQSNEDPLTFGQGTKVEIKR
notes: as for B3
B13: huMA79b graft variant SEQ ID NO: 18 (Fab, name in Kabat numbering, V domains shown)
VH: EVQLVESGGGLVQPGGSLRLSCAASGYTFSSYWIEWVRQAPGKGLEWVGEILPGGGDTNYNEIFKGRFTISADTSKNTAYLQMNSLRAEDTAVYYCTRRVPVYFDYWGQGTLVTVSS
VL: DIQMTQSPSSLSASVGDRVTITCKASQSVDYDGDSFLNWYQQKPGKAPKLLIYAASNRESGVPSRFSGSGSGTDFTLTISSLQPEDFATYYCQQSNEDPLTFGQGTKVEIKR
notes: as for B3
B14: huMA79b graft variant SEQ ID NO: 27 (Fab, name in Kabat numbering, V domains shown)
VH: EVQLVESGGGLVQPGGSLRLSCAASGYTFSSYWIEWVRQAPGKGLEWVGEILPGGGDTNYNEIFKGRFTISADTSKNTAYLQMNSLRAEDTAVYYCTRRVPVYFDYWGQGTLVTVSS
VL: DIQMTQSPSSLSASVGDRVTITCKASQSVDYDGDSFLNWYQQKPGKAPKLLIYAARKLKSGVPSRFSGSGSGTDFTLTISSLQPEDFATYYCQQSNEDPLTFGQGTKVEIKR
notes: as for B3
B15: huMA79b graft variant SEQ ID NO: 21 (Fab, name in Kabat numbering, V domains shown)
VH: EVQLVESGGGLVQPGGSLRLSCAASGYTFSSYWIEWVRQAPGKGLEWVGEILPGGGDTNYNEIFKGRFTISADTSKNTAYLQMNSLRAEDTAVYYCTRRVPVYFDYWGQGTLVTVSS
VL: DIQMTQSPSSLSASVGDRVTITCKASQSVDYDGDSFLNWYQQKPGKAPKLLIYAASNLESGVPSRFSGSGSGTDFTLTISSLQPEDFATYYCQQSNKDPLTFGQGTKVEIKR
notes: as for B3

These binders were tested against T1, extracellular domain of human CD79b (assay: phage selection, Fab on phage, plate-bound huCD79becd).

**Q.** Does B1 bind?
**A.** Result: binds

**Q.** Does B2 bind?
**A.** Result: binds

**Q.** Does B3 bind?
**A.** Result: binds

**Q.** Does B4 bind?
**A.** Result: binds

**Q.** Does B5 bind?
**A.** Result: binds

**Q.** Does B6 bind?
**A.** Result: binds

**Q.** Does B7 bind?
**A.** Result: binds

**Q.** Does B8 bind?
**A.** Result: binds

**Q.** Does B9 bind?
**A.** Result: binds

**Q.** Does B10 bind?
**A.** Result: binds

**Q.** Does B11 bind?
**A.** Result: binds

**Q.** Does B12 bind?
**A.** Result: binds

**Q.** Does B13 bind?
**A.** Result: binds

**Q.** Does B14 bind?
**A.** Result: binds

**Q.** Does B15 bind?
**A.** Result: binds
